Test results taken from article doi:10.1101/485656 (bioRxiv, 2018).

Tests used:
[1] = target: FtsZ/FtsA co-filaments on a supported lipid bilayer (Escherichia coli) (UniProt P0ABH0); test: TIRF colocalisation on supported lipid bilayers
[2] = target: FtsA (Escherichia coli) (UniProt P0ABH0); test: TIRF colocalisation on supported lipid bilayers
[3] = target: FtsA (Escherichia coli) (UniProt P0ABH0); test: MST
[4] = target: FtsZ/FtsA co-filaments on a supported lipid bilayer (Escherichia coli) (UniProt P0ABH0); test: single-molecule tracking by TIRF on supported lipid bilayers
[5] = target: the molecule itself; test: AUC

Molecule: FtsQ_(cyto)His (peptide)
- Pearson correlation coefficient of colocalisation with FtsZ [1]: 0.4

Molecule: FtsZ (natural protein)
- Pearson correlation coefficient of FtsA/FtsZ colocalisation [2]: 0.79

Molecule: FtsN_(cyto-D5N)His (peptide)
- Pearson correlation coefficient of colocalisation with FtsZ [1]: 0.75
- Kd [3]: 160 nM

Molecule: FtsN_(cyto)His (peptide)
- average duration of confinement [4]: 0.41 s
- frequency of confinement events, fold over the DDEE mutant [4]: 3 fold
- weight of the population with short displacements, fold over FtsN (cyto-DDEE)His [4]: 3 fold
- weighted contribution of the confined population, fold over FtsN (cyto-DDEE)His [4]: 2 fold
- Pearson correlation coefficient of colocalisation with FtsA [2]: 0.8
- Pearson correlation coefficient of colocalisation with FtsZ [1]: 0.86
- fold lower colocalization efficiency with GMPCPP against GTP [1]: 1.5 fold
- Kd [3]: 324 nM

B1: full-length FtsN with a C-terminal oligohistidine tag (natural protein, Escherichia coli, UniProt P29131 1-319, looked up)
chain: MAQRDYVRRSQPAPSRRKKSTSRKKQRNLPAVSPAMVAIAAAVLVTFIGGLYFITHHKKEESETLQSQKVTGNGLPPKPEERWRYIKELESRQPGVRAPTEPSAGGEVKTPEQLTPEQRQLLEQMQADMRQQPTQLVEVPWNEQTPEQRQQTLQRQRQAQQLAEQQRLAQQSRTTEQSWQQQTRTSQAAPVQAQPRQSKPASSQQPYQDLLQTPAHTTAQSKPQQAAPVARAADAPKPTAEKKDERRWMVQCGSFRGAEQAETVRAQLAFEGFDSKITTNNGWNRVVIGPVKGKENADSTLNRLKMAGHTNCIRLAAGG
- binding result [5]: binds
